Positions count from the first letter of the chain named. Numbers in names are those of the source.
B1: 37H4H3 (antibody, V domains shown)
VH: EVQLQQSGPELVKPGASVKLSCKASGYTFTSSVMHWVKQKPGQGLEWLGYINPYSDGTKFNEKYKTKATLTSDKSSSTAYMELSSLTSEDSAVYYCARGLIGTRYDSWFAYWGQGTLVTVSA
VL: DIQMTQNASSLSASLGDRVTISCRTSQDINNYLNWYQQKPDGTVKLLIYYTSRLHSGVPSRFSGSGSGTDYSLSIRYLEQEDIATYFCHQGNTLPYTFGGGTKLEIK
notes: Mouse hybridoma antibody; also called antibody 37H4H3
B2: 33H11F3 (antibody, V domains shown)
VH: EVQLQQSGPELVKPGASVKMSCKASGYTFTSYVMHWVKQKPGQGLEWMGYINPYNDGTKYNEKFKGKATLTSDKSSNTAYMEFSSLTSEDSAVYYCARIDYGTIHTSWFAYWGQGTLVTVSA
VL: B1 VL with Q6H, N7T, A8T, T25A, N30S, S74T, R76S, Y77N, H89Q, Y96W
notes: Mouse hybridoma antibody; also called antibody 33H11F3
B3: chimeric-VH-PTM1+VL-1 (antibody, human IgG4 S228P, V domains shown)
VH: B1 VH with M34I, D56E, Y64S, T66I
VL: B1 VL with A8G, P40Q, S74T, Y77N, H89Q
notes: Heavy chain with hIgG4 CH (S228P); Light chain: mouse VL-1 with a human constant region; Tested from supernatant; also called U0959FD090-chimeric-VH-PTM1 with 32G8H6 VL-1
B4: 38F1E12 (antibody, V domains shown)
VH: EVQLQQSGPELVQPGASVRMSCKASGYTFTSYVMHWVKQKPGQGLEWIGYINPYNDGTKYNEKFKGKATLTSDKSSSTAYMELSSLTSEDSAVYYCARGRNRYDGWFTYWGQGTLVTVSA
VL: B1 VL with N7T, A8T, S9F, T25A, N30S, S74T, R76S, Y77N, H89Q
notes: Mouse hybridoma antibody; also called antibody 38F1E12
B5: chimeric-VH-PTM2+VL-1 (antibody, human IgG4 S228P, V domains shown)
VH: B1 VH with M34I, G57A, Y64S, T66I
VL: B1 VL with A8G, P40Q, S74T, Y77N, H89Q
notes: Heavy chain with hIgG4 CH (S228P); Light chain: mouse VL-1 with a human constant region; Tested from supernatant; also called U0959FD090-chimeric-VH-PTM2 with 32G8H6 VL-1
B6: 41B1H9 (antibody, V domains shown)
VH: EVQLQQSGTELVKPGASVRLSCTASGLDIKDTYMHWLKQRPEQGLEWIGRIDPASGNAKHDPKFQGKATITSDPSSNTANLQLTSLTSEDSAVYYCASGYGHYVGAMDYWGQGTSVTVSS
VL: DIQMNQSPSSLSASLGDTITITCHASQNINVWLSWYQQKPGNIPKLLIYKASNLHTGVPSRFSGSGSGTGFTLTISSLQPEDIATYYCQQSRNYPYTFGGGTKLEIK
notes: Mouse hybridoma antibody; also called antibody 41B1H9
B7: VH2+VL2 (antibody, human IgG4 S228P, kappa, V domains shown)
VH: QVQLVQSGAEVKKPGASVKVSCKASGYTFTSSVIHWVRQAPGQGLEWLGYINPYSDGTKFNEKCKIRATMTSDTSISTAYMELSRLRSDDTAVYYCARGLIGTRYDSWFAYWGQGTLVTVSS
VL: DIQMTQSPSSLSASVGDRVTITCRTSQDINNYLNWYQQKPGKAVKLLIYYTSRLHSGVPSRFSGSGSGTDFTFTISSLQPEDIATYFCQQGNTLPYTFGGGTKVEIKR
notes: Humanized IgG, hIgG4 CH (S228P) and human kappa CL; leader residues 1-19 of each entry left out; Tested from supernatant; also called U0959FD090-VH2 + U0959FD090-VL2
B8: VH1+VL1 (antibody, human IgG4 S228P, kappa, V domains shown)
VH: B7 VH with L48M, A68V, S72R
VL: B7 VL with V44P, F87Y
notes: Humanized IgG, hIgG4 CH (S228P) and human kappa CL; Tested from supernatant; also called U0959FD090-VH1 + U0959FD090-VL1
B9: VH3+VL4 (antibody, human IgG4 S228P, kappa, V domains shown)
VH: B7 VH with R38K, A68V, M70L
VL: B7 VL with T22S, A43T, F71Y
notes: Humanized IgG, hIgG4 CH (S228P) and human kappa CL; leader residues 1-19 of each entry left out; Tested from supernatant; also called U0959FD090-VH3 + U0959FD090-VL4
B10: VH1-PTM+VL3 (antibody, human IgG4 S228P, kappa, V domains shown)
VH: B7 VH with L48M, D56E, C64S, A68V, S72R
VL: B7 VL with F71Y
notes: Purified humanized IgG with PTM sites removed, hIgG4 CH (S228P) and human kappa CL; leader residues 1-19 of each entry left out; also called U0959FD090-VH1-PTM + U0959FD090-VL3
B11: VH4+VL4 (antibody, human IgG4 S228P, kappa, V domains shown)
VH: B7 VH with R38K, T74K
VL: B7 VL with T22S, A43T, F71Y
notes: Humanized IgG, hIgG4 CH (S228P) and human kappa CL; leader residues 1-19 of each entry left out; Tested from supernatant; also called U0959FD090-VH4 + U0959FD090-VL4
B12: VH1-PTM+VL1 (antibody, human IgG4 S228P, kappa, V domains shown)
VH: B7 VH with L48M, D56E, C64S, A68V, S72R
VL: B7 VL with V44P, F87Y
notes: Purified humanized IgG with PTM sites removed, hIgG4 CH (S228P) and human kappa CL; leader residues 1-19 of each entry left out; also called U0959FD090-VH1-PTM + U0959FD090-VL1

Legend:
[1] = molecular target: T1, human CD47 protein (human, UniProt Q08722 19-139, limits assumed); test: SPR (Biacore) affinity ranking, ligand captured through Fc, human CD47 as analyte, 25 °C, 1:1 Binding model; fit of a flat sensorgram
T1 construct: also called human CD47 antigen

[2] = molecular target: T1, human CD47 protein; test: SPR Biacore, supernatant ranking run, human CD47 analyte 5 nM
[3] = molecular target: T2, extracellular domain of human CD47 (human, UniProt Q08722 19-139); test: hybridoma screening ELISA on the immunogen
T2 construct: also called immunogen
Experimental: Balb/c mice (4-6 mice per group) were immunized with the extracellular domain of human CD47 and immune adjuvant. Immune boosts were performed 3-5 times. Serum collection and titer evaluation by ELISA against target immunogen were performed. Spleens were extracted surgically from the highest titer mouse or mice. Mouse spleen cells were fused with rat myeloma cells facilitated by PEG. Fused cells were seeded into 96-well plates in the presence of HAT Fusion medium. Three consecutive rounds of clone testing were performed by ELISA using the immunogen for positive screening to identify and validate the positive hybridoma clones. Hybridoma cell lines producing the most suitable antibodies were subcloned and expanded for monoclonal antibody production and cell storage.

[4] = molecular target: T1, human CD47 protein; test: SPR Biacore, supernatant antibody Fc-captured, human CD47 analyte 5 nM
Experimental: Production and affinity ranking of humanized antibodies. The designed plasmids of heavy chain and light chain were sent for 3 mL transfection following GenScript's SOP. For affinity ranking, Antibodies were captured on the sensor chip through Fc capture method. Human CD47 protein was used as the analyte. The surface was regenerated before the injection of another antibody. The process was repeated until all antibodies were analyzed. The off-rates of antibodies were obtained from fitting the experimental data locally to 1:1 interaction model using the Biacore® T200/8K evaluation software. The antibodies were ranked by their dissociation rate constants (off-rates, kd).

[5] = molecular target: T1, human CD47 protein; test: SPR Biacore, purified IgG Fc-captured, human CD47 analyte 0.3125-10 nM
Description: Affinity measurement of purified humanized IgGs. The affinity of purified antibody binding to human CD47 was individually determined using a Surface Plasmon Resonance (SPR) biosensor, Biacore® T200/8K (GE Healthcare). Antibodies were captured on the sensor chip through Fc capture method. Human CD47 protein was used as the analyte. The data of dissociation (kd) and association (ka) rate constants were obtained using Biacore T200/8K evaluation software. The equilibrium dissociation constants (KD) were calculated from the ratio of kd over ka.

T1 sequence (Q08722 19-139 limits assumed): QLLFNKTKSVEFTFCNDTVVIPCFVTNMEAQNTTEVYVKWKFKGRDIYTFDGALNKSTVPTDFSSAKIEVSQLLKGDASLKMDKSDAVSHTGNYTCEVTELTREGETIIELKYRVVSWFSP
T2 sequence (Q08722 19-139 limits assumed): as above

Row | Molecule | binding result [3] | Kd [4] | koff [4] | kon [4] | also measured
1 | NC | – | – | – | – | Kd [1]: 387000 pM; koff [1]: 0.0179 s⁻¹; kon [1]: 46300 M⁻¹ s⁻¹; Kd [2]: 387000 pM; koff [2]: 0.0179 s⁻¹; kon [2]: 46300 M⁻¹ s⁻¹
2 | B1 | binds | – | – | – | –
3 | B2 | binds | – | – | – | –
4 | B3 | – | 292 pM | 0.00215 s⁻¹ | 7.36e+06 M⁻¹ s⁻¹ | –
5 | B4 | binds | – | – | – | –
6 | B5 | – | 488 pM | 0.00442 s⁻¹ | 9.06e+06 M⁻¹ s⁻¹ | –
7 | B6 | binds | – | – | – | –
8 | B7 | – | 698 pM | 0.00413 s⁻¹ | 5.92e+06 M⁻¹ s⁻¹ | –
9 | B8 | – | 412 pM | 0.0021 s⁻¹ | 5.1e+06 M⁻¹ s⁻¹ | –
10 | B9 | – | 555 pM | 0.00305 s⁻¹ | 5.49e+06 M⁻¹ s⁻¹ | –
11 | B10 | – | – | – | – | Kd [5]: 458 pM; koff [5]: 0.0016 s⁻¹; kon [5]: 3.49e+06 M⁻¹ s⁻¹
12 | B11 | – | 553 pM | 0.00278 s⁻¹ | 5.02e+06 M⁻¹ s⁻¹ | –
13 | B12 | – | – | – | – | Kd [5]: 872 pM; koff [5]: 0.0023 s⁻¹; kon [5]: 2.64e+06 M⁻¹ s⁻¹
